Experimental data reported in paper PMC10512346, “Cleavage of α-1,4-glycosidic linkages by the glycosylphosphatidylinositol-anchored α-amylase AgtA decreases the molecular weight of cell wall α-1,3-glucan in Aspergillus oryzae” (Frontiers in Fungal Biology, 2023).

Assays:
Assay in all cases: purified protein
Assay type in all cases: biochemical, Aspergillus oryzae
[1] = substrate: O=[N+]([O-])c1ccc(O[C@H]2O[C@H](CO)[C@@H](O[C@H]3O[C@H](CO)[C@@H](O[C@H]4O[C@H](CO)[C@@H](O[C@H]5O[C@H](CO)[C@@H](O[C@H]6O[C@H](CO)[C@@H](O[C@H]7O[C@H](CO)[C@@H](O)[C@H](O)[C@H]7O)[C@H](O)[C@H]6O)[C@H](O)[C@H]5O)[C@H](O)[C@H]4O)[C@H](O)[C@H]3O)[C@H](O)[C@H]2O)cc1; conditions: 50 mM sodium acetate pH 5.5, 40°C, apparent value, hydrolysis plus transglycosylation, 1.6–50 mM substrate
[2] = substrate: O=[N+]([O-])c1ccc(O[C@H]2O[C@H](CO)[C@@H](O[C@H]3O[C@H](CO)[C@@H](O[C@H]4O[C@H](CO)[C@@H](O[C@H]5O[C@H](CO)[C@@H](O[C@H]6O[C@H](CO)[C@@H](O[C@H]7O[C@H](CO)[C@@H](O[C@H]8O[C@H](CO)[C@@H](O)[C@H](O)[C@H]8O)[C@H](O)[C@H]7O)[C@H](O)[C@H]6O)[C@H](O)[C@H]5O)[C@H](O)[C@H]4O)[C@H](O)[C@H]3O)[C@H](O)[C@H]2O)cc1; conditions: 50 mM sodium acetate pH 5.5, 40°C, apparent value, hydrolysis plus transglycosylation, 1.6–50 mM substrate
[3] = substrate: O=[N+]([O-])c1ccc(O[C@H]2O[C@H](CO)[C@@H](O[C@H]3O[C@H](CO)[C@@H](O[C@H]4O[C@H](CO)[C@@H](O[C@H]5O[C@H](CO)[C@@H](O[C@H]6O[C@H](CO)[C@@H](O)[C@H](O)[C@H]6O)[C@H](O)[C@H]5O)[C@H](O)[C@H]4O)[C@H](O)[C@H]3O)[C@H](O)[C@H]2O)cc1; conditions: 50 mM sodium acetate pH 5.5, 40°C, apparent value, hydrolysis plus transglycosylation, 1.6–100 mM substrate
[4] = substrate: O=[N+]([O-])c1ccc(O[C@H]2O[C@H](CO)[C@@H](O[C@H]3O[C@H](CO)[C@@H](O[C@H]4O[C@H](CO)[C@@H](O[C@H]5O[C@H](CO)[C@@H](O[C@H]6O[C@H](CO)[C@@H](O[C@H]7O[C@H](CO)[C@@H](O[C@H]8O[C@H](CO)[C@@H](O[C@H]9O[C@H](CO)[C@@H](O)[C@H](O)[C@H]9O)[C@H](O)[C@H]8O)[C@H](O)[C@H]7O)[C@H](O)[C@H]6O)[C@H](O)[C@H]5O)[C@H](O)[C@H]4O)[C@H](O)[C@H]3O)[C@H](O)[C@H]2O)cc1; conditions: 50 mM sodium acetate pH 5.5, 40°C, apparent value, hydrolysis plus transglycosylation, 1.6–25 mM substrate

B1: rAoAgtA (Aspergillus oryzae RIB40) (protein)
chain: ATTAEWKSRSVYQTMTDRFARTDGSTTAPCNTTQGLYCGGTWRGTIDKLDYIQGMGFDAVMISPIVENIEGRVSYGEAYHGYWPLDLYSLNSHFGTHQDLLDLSEALHSRGMYLMMDTVINNMAYMTNGKDPAKNIDYSVFTPFNDSSYFHPYCKITDWNNYTNAQLCQTGDDKVALPDLFTEHEDVQQILEKWAKEIISTYSIDGLRIDAAKHVNPGFLKNFGDAIGAFMTGEVLQQEVDTICKYQNNYIGSVPNYPIYYSVLKAFTLGNTTDLANQVEIMKNSCDDVTALASFSENHDVARFASMTDDMALAKNVLTFTILYDGVPMIYQGQEQHLDGPGTPDNREAIWLTKYNTDAELYKLIAKLNTIRKHAYKLDPNYVSLQTYPIFRGGSELGFRKGVEGRQVVMLLSTQGSNSSAYNLTLPVSFNGGVQVMDVLNCVNYTVNPQSELIVPMDKGEPRVFFPTSLMPGSGLCGYTTANVSFVELKTKGAA
notes: residues 24-518 of 549 (signal peptide 1-23 and C-terminal GPI-anchor region removed), C-terminal PGGGS linker and His6 tag; secreted from Pichia pastoris SMD1168H with alpha-factor signal
[1]
  Km: 45.6 mM
  Vmax: 710 µM/min
  kcat: 64.6 s⁻¹
  kcat/Km: 1420 M⁻¹ s⁻¹
[2]
  Km: 28.9 mM
  Vmax: 402 µM/min
  kcat: 36.7 s⁻¹
  kcat/Km: 1270 M⁻¹ s⁻¹
[3]
  Km: 61.8 mM
  Vmax: 659 µM/min
  kcat: 60 s⁻¹
  kcat/Km: 970 M⁻¹ s⁻¹
[4]
  Km: 25.1 mM
  Vmax: 344 µM/min
  kcat: 31.3 s⁻¹
  kcat/Km: 1250 M⁻¹ s⁻¹
